Here are results for 17 molecules from patent US20250034256A1 (EUCURE BEIJING BIOPHARMA, published 2025).

As a reminder, the Kd is the constant that tells how readily two partners part at equilibrium. The koff is a measure of how fast the partners let go of each other. The term kon denotes the rate constant with which the complex forms. A high value points to fast association.

B1: 1A7-H2K2-IgG4-S228P (antibody, V domains shown)
VH: EVQLVESGGGLVQPGGSLRLSCAASGFTFSSYSMSWVRQAPGKRLEWVAHISSGGSSTYYPDTVKGRFTISRDNSKNTLYLQMNSLRAEDTAMYYCTRQFYYGSSFWYFDVWGAGTTVTVSS
VL: DNVLTQSPATLSVSPGERATLSCKASQSVDFDGDSYMNWYQQKPGQPPRLLIYAASNLESGIPARFSGSGPGTDFTLTISSLEPEDFATYYCQQSNEDPPTFGGGTKVEIK
notes: Humanized; human IgG4 constant domains with S228P (EU numbering)
B2: 1A7-H3K2-IgG4-S228P (antibody, V domains shown)
VH: EVKLVESGGGLVQPGGSLRLSCAASGFTFSSYSMSWVRQAPGKRLEWVAHISSGGSSTYYPDTVKGRFTISRDNSKNTLYLQMNSLRAEDTAMYYCTRQFYYGSSFWYFDVWGAGTTVTVSS
VL: DNVLTQSPATLSVSPGERATLSCKASQSVDFDGDSYMNWYQQKPGQPPRLLIYAASNLESGIPARFSGSGPGTDFTLTISSLEPEDFATYYCQQSNEDPPTFGGGTKVEIK
notes: as for B1
B3: 1A7-H1K1-IgG4-S228P (antibody, V domains shown)
VH: EVQLLESGGGLVQPGGSLRLSCAASGFTFSSYSMSWVRQAPGKRLEWVAHISSGGSSTYYPDTVKGRFTISRDNSKNTLYLQMNSLRAEDTAMYYCTRQFYYGSSFWYFDVWGQGTTVTVSS
VL: DNVLTQSPATLSLSPGERATLSCKASQSVDFDGDSYMNWYQQKPGQPPRLLIYAASNLESGIPARFSGSGPGTDFTLTISSLEPEDFATYYCQQSNEDPPTFGGGTKVEIK
notes: as for B1
B4: 1A7-H1K2-IgG4-S228P (antibody, V domains shown)
VH: EVQLLESGGGLVQPGGSLRLSCAASGFTFSSYSMSWVRQAPGKRLEWVAHISSGGSSTYYPDTVKGRFTISRDNSKNTLYLQMNSLRAEDTAMYYCTRQFYYGSSFWYFDVWGQGTTVTVSS
VL: DNVLTQSPATLSVSPGERATLSCKASQSVDFDGDSYMNWYQQKPGQPPRLLIYAASNLESGIPARFSGSGPGTDFTLTISSLEPEDFATYYCQQSNEDPPTFGGGTKVEIK
notes: as for B1
B5: 1A7-H3K1-IgG4-S228P (antibody, V domains shown)
VH: EVKLVESGGGLVQPGGSLRLSCAASGFTFSSYSMSWVRQAPGKRLEWVAHISSGGSSTYYPDTVKGRFTISRDNSKNTLYLQMNSLRAEDTAMYYCTRQFYYGSSFWYFDVWGAGTTVTVSS
VL: DNVLTQSPATLSLSPGERATLSCKASQSVDFDGDSYMNWYQQKPGQPPRLLIYAASNLESGIPARFSGSGPGTDFTLTISSLEPEDFATYYCQQSNEDPPTFGGGTKVEIK
notes: as for B1
B6: 1A7-H3K3-IgG4-S228P (antibody, V domains shown)
VH: EVKLVESGGGLVQPGGSLRLSCAASGFTFSSYSMSWVRQAPGKRLEWVAHISSGGSSTYYPDTVKGRFTISRDNSKNTLYLQMNSLRAEDTAMYYCTRQFYYGSSFWYFDVWGAGTTVTVSS
VL: DNVLTQSPATLSVSPGERATLSCKASQSVDFDGDSYMNWYQQKPGQPPRLLIYAASNLESGIPARFSGSGSGTDFTLTISSVEPEDFATYYCQQSNEDPPTFGGGTKVEIK
notes: as for B1
B7: 1A7-H1K3-IgG4-S228P (antibody, V domains shown)
VH: EVQLLESGGGLVQPGGSLRLSCAASGFTFSSYSMSWVRQAPGKRLEWVAHISSGGSSTYYPDTVKGRFTISRDNSKNTLYLQMNSLRAEDTAMYYCTRQFYYGSSFWYFDVWGQGTTVTVSS
VL: DNVLTQSPATLSVSPGERATLSCKASQSVDFDGDSYMNWYQQKPGQPPRLLIYAASNLESGIPARFSGSGSGTDFTLTISSVEPEDFATYYCQQSNEDPPTFGGGTKVEIK
notes: as for B1
B8: 1A7-H2K3-IgG4-S228P (antibody, V domains shown)
VH: EVQLVESGGGLVQPGGSLRLSCAASGFTFSSYSMSWVRQAPGKRLEWVAHISSGGSSTYYPDTVKGRFTISRDNSKNTLYLQMNSLRAEDTAMYYCTRQFYYGSSFWYFDVWGAGTTVTVSS
VL: DNVLTQSPATLSVSPGERATLSCKASQSVDFDGDSYMNWYQQKPGQPPRLLIYAASNLESGIPARFSGSGSGTDFTLTISSVEPEDFATYYCQQSNEDPPTFGGGTKVEIK
notes: as for B1
B9: 1A7-H2K1-IgG4-S228P (antibody, V domains shown)
VH: EVQLVESGGGLVQPGGSLRLSCAASGFTFSSYSMSWVRQAPGKRLEWVAHISSGGSSTYYPDTVKGRFTISRDNSKNTLYLQMNSLRAEDTAMYYCTRQFYYGSSFWYFDVWGAGTTVTVSS
VL: DNVLTQSPATLSLSPGERATLSCKASQSVDFDGDSYMNWYQQKPGQPPRLLIYAASNLESGIPARFSGSGPGTDFTLTISSLEPEDFATYYCQQSNEDPPTFGGGTKVEIK
notes: as for B1
B10: 3F1-mHvKv-IgG4-S228P (antibody, V domains shown)
VH: QVQLQQSGAELAKPGASVKMSCKASGYTFTSYWMHWVKQRPGQGLEWIGYINPSTGYTEYNQKFKDKATLTADKSSSTAYMQLSSLTSEDSAVYYCARGVRYYFDYWGQGTTLTVSS
VL: DIVMSQSPSSLAVSAGEKVTMSCKSSQSLLNSRTRKNYLAWYQQKPGQSPKLLIYWASTRESGVPDRFTGSGSGTDFTLTISSVQAEDLAVYYCKQSYNLLTFGAGTKLELK
notes: Chimeric antibody: mouse 3F1 variable domains, human IgG4 constant domains (CL, CH1, CH2, CH3) with S228P (EU numbering); also called 18-3F1-mHvKv-IgG4-S228P; 3F1-mHyKy-IgG4-S228P
B11: 3F1-H3K2-IgG4-S228P (antibody, V domains shown)
VH: QVQLQQSGAEVAKPGASVKMSCKASGYTFTSYWMHWVKQRPGQGLEWIGYINPSTGYTEYNQKFKDRATLTADTSTSTAYMELSSLRSEDTAVYYCARGVRYYFDYWGQGTLLTVSS
VL: DIVMTQSPDSLAVSLGERATMSCKSSQSLLNSRTRKNYLAWYQQKPGQSPKLLIYWASTRESGVPDRFSGSGSGTDFTLTISSVQAEDVAVYYCKQSYNLLTFGQGTKLELK
notes: as for B1
B12: 3F1-H2K1-IgG4-S228P (antibody, V domains shown)
VH: QVQLQQSGAEVKKPGASVKMSCKASGYTFTSYWMHWVKQRPGQGLEWIGYINPSTGYTEYNQKFKDRATLTADKSTSTAYMELSSLRSEDTAVYYCARGVRYYFDYWGQGTLVTVSS
VL: DIVMTQSPDSLAVSLGERATISCKSSQSLLNSRTRKNYLAWYQQKPGQSPKLLIYWASTRESGVPDRFSGSGSGTDFTLTISSVQAEDVAVYYCKQSYNLLTFGQGTKLELK
notes: as for B1
B13: 3F1-H1K1-IgG4-S228P (antibody, V domains shown)
VH: QVQLQQSGAEVKKPGASVKMSCKASGYTFTSYWMHWVRQAPGQGLEWIGYINPSTGYTEYNQKFKDRATLTADTSTSTAYMELSSLRSEDTAVYYCARGVRYYFDYWGQGTLVTVSS
VL: DIVMTQSPDSLAVSLGERATISCKSSQSLLNSRTRKNYLAWYQQKPGQSPKLLIYWASTRESGVPDRFSGSGSGTDFTLTISSVQAEDVAVYYCKQSYNLLTFGQGTKLELK
notes: as for B1
B14: 3F1-H1K3-IgG4-S228P (antibody, V domains shown)
VH: QVQLQQSGAEVKKPGASVKMSCKASGYTFTSYWMHWVRQAPGQGLEWIGYINPSTGYTEYNQKFKDRATLTADTSTSTAYMELSSLRSEDTAVYYCARGVRYYFDYWGQGTLVTVSS
VL: DIVMTQSPSSLAVSAGERVTMSCKSSQSLLNSRTRKNYLAWYQQKPGQSPKLLIYWASTRESGVPDRFSGSGSGTDFTLTISSVQAEDVAVYYCKQSYNLLTFGQGTKLELK
notes: as for B1
B15: 3F1-H1K2-IgG4-S228P (antibody, V domains shown)
VH: QVQLQQSGAEVKKPGASVKMSCKASGYTFTSYWMHWVRQAPGQGLEWIGYINPSTGYTEYNQKFKDRATLTADTSTSTAYMELSSLRSEDTAVYYCARGVRYYFDYWGQGTLVTVSS
VL: DIVMTQSPDSLAVSLGERATMSCKSSQSLLNSRTRKNYLAWYQQKPGQSPKLLIYWASTRESGVPDRFSGSGSGTDFTLTISSVQAEDVAVYYCKQSYNLLTFGQGTKLELK
notes: as for B1
B16: 3F1-H2K3-IgG4-S228P (antibody, V domains shown)
VH: QVQLQQSGAEVKKPGASVKMSCKASGYTFTSYWMHWVKQRPGQGLEWIGYINPSTGYTEYNQKFKDRATLTADKSTSTAYMELSSLRSEDTAVYYCARGVRYYFDYWGQGTLVTVSS
VL: DIVMTQSPSSLAVSAGERVTMSCKSSQSLLNSRTRKNYLAWYQQKPGQSPKLLIYWASTRESGVPDRFSGSGSGTDFTLTISSVQAEDVAVYYCKQSYNLLTFGQGTKLELK
notes: as for B1
B17: 3F1-H2K2-IgG4-S228P (antibody, V domains shown)
VH: QVQLQQSGAEVKKPGASVKMSCKASGYTFTSYWMHWVKQRPGQGLEWIGYINPSTGYTEYNQKFKDRATLTADKSTSTAYMELSSLRSEDTAVYYCARGVRYYFDYWGQGTLVTVSS
VL: DIVMTQSPDSLAVSLGERATMSCKSSQSLLNSRTRKNYLAWYQQKPGQSPKLLIYWASTRESGVPDRFSGSGSGTDFTLTISSVQAEDVAVYYCKQSYNLLTFGQGTKLELK
notes: as for B1

For this assay, the target named is T1, Histidine-tagged human PD-1 protein (hPD-1-His) (human, UniProt Q15116 25-170, limits assumed).
T1 construct: Soluble analyte in SPR; not shown: histidine tag
T1 sequence (Q15116 25-170 limits assumed): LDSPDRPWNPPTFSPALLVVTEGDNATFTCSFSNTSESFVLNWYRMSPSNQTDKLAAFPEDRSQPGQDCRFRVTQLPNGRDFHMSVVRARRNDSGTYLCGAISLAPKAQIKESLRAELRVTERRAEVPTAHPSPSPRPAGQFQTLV
Put plainly: SPR (Biacore T200), antibody captured on Protein A chip, hPD-1-His analyte, 1:1 fit. As for the experimental part: The binding affinity of the anti-hPD-1 antibodies were measured using surface plasmon resonance (SPR) using Biacore™ (Biacore™, INC, Piscataway N.J.) T200 biosensor equipped with pre-immobilized Protein A sensor chips.
Histidine-tagged human PD-1 proteins (hPD-1-His) at the concentration of 200, 100, 50, 25, 12.5, 6.25, 3.125, 1.5625 nM were then injected at 30 μL/min for 100 seconds. Dissociation was monitored for 400 seconds. The chip was regenerated after the last injection of each titration with Glycine (pH 2.0, 30 μL/min for 12 seconds).
As a person of ordinary skill in the art would understand, the same method with appropriate adjustments for parameters (e.g., antibody concentration) was performed for each tested antibody.
In general terms: In SPR one partner is held on a chip, and binding of the other changes the refractive index at the surface.
In turn, B1 registered a dissociation constant Kd of 57.8 nM, an off-rate (koff) of 0.00282 s⁻¹ and a kon of 48800 M⁻¹ s⁻¹.

Take B2: the Kd is 58.2 nM, the koff worked out at 0.0028 s⁻¹ and the on-rate (kon) is 48100 M⁻¹ s⁻¹.

Molecule B3 yielded a Kd of 47.9 nM, a koff of 0.00272 s⁻¹ and an on-rate constant (kon) of 56800 M⁻¹ s⁻¹.

B4 gave a Kd of 32.1 nM, a koff of 0.00265 s⁻¹ and an on-rate (kon) of 82600 M⁻¹ s⁻¹.

In turn, B5 came in with a Kd of 39.9 nM, a koff of 0.00264 s⁻¹ and an association rate constant (kon) of 66200 M⁻¹ s⁻¹.

On to B6, for which the affinity, expressed as Kd, was 12.9 nM; the koff is 0.00132 s⁻¹; the kon turned out to be 102000 M⁻¹ s⁻¹.

For B7, binding was characterised by a dissociation constant (Kd) of 10.1 nM, the dissociation rate constant (koff) was determined as 0.00119 s⁻¹ and the kon was found to be 118000 M⁻¹ s⁻¹.

Turning to B8, the Kd came to 11.9 nM, the off-rate constant (koff) stood at 0.00136 s⁻¹ and the kon was 115000 M⁻¹ s⁻¹.

As to B9, binding was characterised by a dissociation constant (Kd) of 57.3 nM, the koff came out at 0.0028 s⁻¹ and the association rate constant (kon) was 48900 M⁻¹ s⁻¹.

Turning to B10, the dissociation constant Kd was found to be 346 nM, the koff is 0.00128 s⁻¹ and the kon was found to be 3700 M⁻¹ s⁻¹.

For B11, binding was characterised by a dissociation constant (Kd) of 296 nM, the koff is 0.0015 s⁻¹ and the kon was found to be 5060 M⁻¹ s⁻¹.

As to B12, the Kd turned out to be 422 nM, the off-rate (koff) came to 0.00192 s⁻¹ and the association rate constant (kon) stood at 4550 M⁻¹ s⁻¹.

B13: the dissociation constant Kd worked out at 376 nM, the koff turned out to be 0.00181 s⁻¹ and the on-rate constant (kon) was found to be 4810 M⁻¹ s⁻¹.

B14 gave a Kd of 275 nM, an off-rate (koff) of 0.00132 s⁻¹ and an on-rate constant (kon) of 4790 M⁻¹ s⁻¹.

As to B15, binding was put at a Kd of 294 nM, the koff worked out at 0.00155 s⁻¹ and the on-rate constant (kon) is 5270 M⁻¹ s⁻¹.

For the molecule B16, the Kd came out at 329 nM, the koff turned out to be 0.00145 s⁻¹ and the association rate constant (kon) came to 4410 M⁻¹ s⁻¹.

In turn, B17 returned a dissociation constant Kd of 354 nM, a koff of 0.0017 s⁻¹ and a kon of 4810 M⁻¹ s⁻¹.
